# According to patent US20090240038A1 (Amgen, published 2009):
# Where a chain is given by its changes, count along the chain named. Names may count otherwise.
# T1: Pep-3, NH2-LEEKKGNYVVTDHG-OH (human)
# T1 construct: MW 1590 Da; free peptide of the Biacore and KinExA experiments
# T1 peptide: H-LEEKKGNYVVTDHG-OH
# B1: antibody 131 (antibody, human IgG1, V domains shown)
# VH: QVQLVESGGGVVQSGRSLRLSCAASGFTFRNYGMHWVRQAPGKGLEWVAVIWYDGSDKYYADSVRGRFTISRDNSKNTLYLQMNSLRAEDTAVYYCARDGYDILTGNPRDFDYWGQGTLVTVSS
# VL: DTVMTQTPLSSHVTLGQPASISCRSSQSLVHSDGNTYLSWLQQRPGQPPRLLIYRISRRFSGVPDRFSGSGAGTDFTLEISRVEAEDVGVYYCMQSTHVPRTFGQGTKVEIK
# notes: XenoMax derived; variable regions cloned into human IgG1 and IgK expression vectors; also called SC131
# B2: antibody 13.1.2 (antibody, human IgG1, V domains shown)
# VH: QVQLVESGGGVVQPGRSLRLSCAASGFTFSSYGMHWVRQAPGKGLEWVAVIWYDGSNKYYVDSVKGRFTISRDNSKNTLYLQMNSLRAEDTAVYYCARDGWQQLAPFDYWGQGTLVTVSS
# VL: not shown
# notes: Hybridoma derived fully human IgG1 kappa
# B3: 13.1.2 variant N35G-3.1 (antibody, V domains shown)
# VH: B2 VH
# VL: DIVMTQTPLSSPVTLGQPASISCRSSQSLVHSDGGTYLSWLHQRPGQPPRLLIYKISNRFSGVPDRFSGSGAGTAFTLKISRVEAEDVGVYYCMQATQLPRTFGQGTKVEIKR
# notes: also called Asn35Gly; 35Gly
# B4: 13.1.2 variant L99T-5.3 (antibody, V domains shown)
# VH: B2 VH
# VL: not shown
# notes: also called Leu99Thr; leu99Thr
# B5: 13.1.2 variant L217Q-10.1 (antibody, V domains shown)
# VH: B2 VH with L104Q
# VL: not shown
# notes: Position 217 of the joint numbering = residue 104 of the heavy chain variable region; also called Leu217Gln; 217Gln
# B6: 13.1.2 variant L217N-2.1 (antibody, V domains shown)
# VH: B2 VH with L104N
# VL: not shown
# notes: Position 217 of the joint numbering = residue 104 of the heavy chain variable region (heavy chain starts at 114); also called Leu217Asn; 217Asn
# B7: 13.1.2 variant L99H-9.2 (antibody, V domains shown)
# VH: B2 VH
# VL: not shown
# notes: also called Leu99His; 99His
# B8: 13.1.2 variant L99N-4.1 (antibody, V domains shown)
# VH: B2 VH
# VL: not shown
# notes: also called Leu99Asn; 99Asn
# B9: 13.1.2 variant Y172R-1.2 (antibody, V domains shown)
# VH: B2 VH with Y59R
# VL: not shown
# notes: Position 172 of the joint numbering = residue 59 of the heavy chain variable region; also called Tyr172Arg; 172Arg
# B10: antibody 139 (antibody, human IgG1, V domains shown)
# VH: EVQVLESGGGLVQPGGSLRLSCAASGFTFSSYAMSWVRQAPGKGLEWVSAISGSGGSTNYADSVKGRFTISRDNSKNTLYLQMNSLRAEDTAVYYCAGSSGWSEYWGQGTLVTVSS
# VL: DIQMTQSPSSLSASVGDRVTITCRASQGIRNNLAWYQQKPGKAPKRLIYAASNLQSGVPSRFTGSGSGTEFTLIVSSLQPEDFATYYCLQHHSYPLTSGGGTKVEIK
# notes: Recombinant human IgG1 kappa; also called SC139
# B11: antibody 250 (antibody, human IgG1, V domains shown)
# VH: B10 VH with V2G, V4L, L11W, G16E, M83V, A88V
# VL: DIQMTQSPSSLSASVGDSVTITCRTSQGIRKNLGWYQQKPGKAPKRLIYAASSLQSGVPSRFSGSGSGTEFTLTISRLQPEDFATYYCLQHHSYPLTFGGGTRVEIR
# notes: Recombinant human IgG1 kappa; also called SC250; sc250
# B12: antibody 211 (antibody, human IgG1, V domains shown)
# VH: QVQLVESGGGVVQPGRSLRLSCVASGFTLSSYGMHWVRQAPGKGLEWVAVTSYDGSKKDYADSAKGRFTISRDNSKNTLYLQMNSLRAEDTAVYYCVSEGYCSSSSCYKYYYYGMDVWGQGTTVTVSS
# VL: DIVMTQSPLSLPVTPGEPASISCRSSQSLLYRNGNNYLDWYLQRPGQSPQLLIYLGSNRASGVPDRFSGSGSGTDFTLKISRVEAEDVGVYYCMQALQTPRTFGQGTKVEIK
# notes: Recombinant human IgG1 kappa; also called SC211; sc211
# B13: antibody 095 (antibody, human IgG1, V domains shown)
# VH: QVQLQESGPFLVKPSQTLSLTCTVSGGSISSGGYYWSWIRQHPGKGLEWIGFIYYRGNTYYNPSLKSRVTISVDTSKNQFSLKLSSVTAADTAVYYCARDGYCSRTGCYGGWFDPWGQGTLVTVSP
# VL: DIVMTQTPLSSPVTLGQPASISCRSSQSLIHTDGNIYLSWLQQRPGQPPRLLIYKISNRFSGVPDRFSGSGAGTDFTLKISRVEAEDVGVYYCMQGTQFPITFGQGTRLEIK
# notes: Recombinant human IgG1 kappa; also called mAb 095; SC95
# Molecular target: T2, EGFRvIII (type III deletion mutant of the epidermal growth factor receptor), expressed on cells (human, UniProt P00533 298-1210)
# T2 construct: Also used for lysates of H1477 cells in Western blots; also called delta-EGFr; dEGFR
# Test: FACS titration on NR6 cells expressing EGFRvIII, PE fluorescence intensity (geo mean)
row,Binder,EC50 (read off the curve) [µg/mL]
1,B1,~0.1

# Molecular target: T1, Pep-3, NH2-LEEKKGNYVVTDHG-OH
# Test: pep3 KinExA
# Description: All KinExA experiments were conducted at room temperature (˜23° C.). For all equilibrium experiments, antigen was serially diluted into solutions having a constant mAb binding site concentration. For the first 10 titration points the dilutions were 2-fold and the 11th and 12th serial dilutions were 10-fold. The sample flow rate for all experiments was 0.25 mL/min and the labeling antibody flow rate was 0.5 mL/min. […] A sample volume of 250 μL was analyzed for the antibody-controlled experiment. Two or three replicates of each sample were measured for all equilibrium experiments. The equilibrium titration data were fit in a dual curve analysis to a 1:1 binding model using KinExA software (Version 2.4, Sapidyne Instruments).
row,Binder,Kd [pM]
1,B1,0.05

# Molecular target: T1, Pep-3, NH2-LEEKKGNYVVTDHG-OH
# Test: logarithm of the measured Kd (Biacore, pep-3), listed beside simulated energies
row,Binder,Ln(Kd)
1,B2,-16.3
2,B3,-15.4
3,B4,-16.5
4,B5,-16.2
5,B6,-15.5
6,B7,-14.7
7,B8,-13.5
8,B9,-13.9

# Molecular target: T2, EGFRvIII (type III deletion mutant of …)
# Test: FACS, NR6 M cells, 0.25 µg/ml mAb + Alexa anti-human IgG Fab, 37 C without glutathione
# Description: XenoMax derived IgG1 recombinant antibodies were expressed, purified and quantitated as described previously. Antibodies were further assayed for their ability to internalize the EGFRvIII receptor in NR6 M cells. […] The cells were washed with cold 10% FCS in PBS and secondary antibody (SS Alexa antihuman IgG Fab) at 3 μg/ml Fab was added and incubated for 7 mins on ice. The cells were washed with cold 10% FCS in PBS once and then resuspended in cold media. Next, two sets of the triplicate were incubated at 37° C. and the remaining set was incubated at 4° C. for 1 hr. After that the cells incubated at 4° C. and one set of the cells incubated at 37° C. were treated with glutathione (as previously mentioned) for 1 hr on ice. Then the cells were washed and resuspended in 100 μl of cold 1% FCS in PBS and analyzed by FACS. The % internalization was calculated from the geometric mean obtained from the FACS analysis [(mean at 37° C. with glutathione—mean at 4° C. with glutathione)/(mean at 37° C. without glutathione—mean at 4° C. with glutathione)].
row,Binder,FACS geometric mean
1,B2,22.1
2,B10,22.6
3,B11,24.1
4,B12,20.8
5,B13,22.6

# Molecular target: T3, EGFRvIII-Rabbit Fc fusion protein (human; rabbit, UniProt P00533 298-645)
# T3 construct: whole entry named; also called EGFRvIII-RbFc; EGFRvIII-Rab Ig Fc fusion protein; not shown: Hinge-CH2-CH3 domain of rabbit IgG
# Test: ELISA, minilipofection supernatant titrated 1:2 on EGFRvIII-Rab Ig Fc fusion protein
# Description: The secretion ELISA tests were performed as follows. […] The plates were washed five times with dH₂O. Recombinant antibodies were titrated 1:2 for 7 wells from the undiluted minilipofection supernatant. The plates were washed five times with dH₂O. A goat anti-human IgG Fc-specific HRP-conjugated antibody was added at a final concentration of 1 μg/mL for 1 hour at RT for the secretion plates and binding plates detected with 1 μg/ml Rb anti Hu Fc for 1 hour at room temperature. The plates were washed five times with dH₂O. The plates were developed with the addition of TMB for 30 minutes and the ELISA was stopped by the addition of 1 M phosphoric acid. Each ELISA plate was analyzed to determine the optical density of each well at 450 nm.
row,Binder,titer (antigen binding) [reciprocal dilution]
1,B1,> 64
